The source of these data is paper PMC2586830 (Molecular Microbiology, 2008).

Like-named read-outs stand apart in the source and are kept apart here.

In series [1] the target is PhoB (Escherichia coli) (UniProt P0AFJ5). To be noted: cited from earlier work.
Series [2] shares this target. Briefly: analytical ultracentrifugation. The settings on record: cited from earlier work.
The series “FRET or BRET” deals with the molecule itself. Nature of the series: FRET or BRET. For orientation: BRET reads energy transfer from a luciferase to a nearby fluorophore.

Sequence of PhoB (Escherichia coli) (P0AFJ5 whole entry): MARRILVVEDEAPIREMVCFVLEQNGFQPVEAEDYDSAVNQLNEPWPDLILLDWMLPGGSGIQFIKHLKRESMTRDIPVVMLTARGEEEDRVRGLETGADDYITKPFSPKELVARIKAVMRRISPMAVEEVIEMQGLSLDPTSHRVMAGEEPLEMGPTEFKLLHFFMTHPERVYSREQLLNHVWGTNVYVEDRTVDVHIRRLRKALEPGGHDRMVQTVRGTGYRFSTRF

Consider PhoB (from UniProt P0AFJ5), for which the Kd with PhoB (Escherichia coli) [1] is 378 µM; in the series with PhoB (Escherichia coli) [2], 5.1 µM.

B1: CFP–CpxR / YFP–CpxR, phosphorylated (natural protein)
chain: MNKILLVDDDRELTSLLKELLEMEGFNVIVAHDGEQALDLLDDSIDLLLLDVMMPKKNGIDTLKALRQTHQTPVIMLTARGSELDRVLGLELGADDYLPKPFNDRELVARIRAILRRSHWSEQQQNNDNGSPTLEVDALVLNPGRQEASFDGQTLELTGTEFTLLYLLAQHLGQVVSREHLSQEVLGKRLTPFDRAIDMHISNLRRKLPDRKDGHPWFKTLRGRGYLMVSAS
modifications: phosphorylated in vitro with phosphoramidate and MgSO4 (conserved aspartate of the receiver domain; residue number not given)
On to B1, for which the binding result in “FRET or BRET” is on record as “binds”.

B2: CFP–TorR / YFP–TorR, phosphorylated (natural protein)
chain: MPHHIVIVEDEPVTQARLQSYFTQEGYTVSVTASGAGLREIMQNQSVDLILLDINLPDENGLMLTRALRERSTVGIILVTGRSDRIDRIVGLEMGADDYVTKPLELRELVVRVKNLLWRIDLARQAQPHTQDNCYRFAGYCLNVSRHTLERDGEPIKLTRAEYEMLVAFVTNPGEILSRERLLRMLSARRVENPDLRTVDVLIRRLRHKLSADLLVTQHGEGYFLAADVC
modifications: phosphorylated in vitro with phosphoramidate and MgSO4 (conserved aspartate of the receiver domain; residue number not given)
B2: the binding result in the series “FRET or BRET” is “binds”.

B3: CFP–PhoP / YFP–PhoP, phosphorylated (natural protein)
chain: MRVLVVEDNALLRHHLKVQIQDAGHQVDDAEDAKEADYYLNEHIPDIAIVDLGLPDEDGLSLIRRWRSNDVSLPILVLTARESWQDKVEVLSAGADDYVTKPFHIEEVMARMQALMRRNSGLASQVISLPPFQVDLSRRELSINDEVIKLTAFEYTIMETLIRNNGKVVSKDSLMLQLYPDAELRESHTIDVLMGRLRKKIQAQYPQEVITTVRGQGYLFELR
modifications: phosphorylated in vitro with phosphoramidate and MgSO4 (conserved aspartate of the receiver domain; residue number not given)
As to B3, the binding result in the series “FRET or BRET” is “binds”.

B4: CFP–BaeR / YFP–BaeR, phosphorylated (natural protein)
chain: MTELPIDENTPRILIVEDEPKLGQLLIDYLRAASYAPTLISHGDQVLPYVRQTPPDLILLDLMLPGTDGLTLCREIRRFSDIPIVMVTAKIEEIDRLLGLEIGADDYICKPYSPREVVARVKTILRRCKPQRELQQQDAESPLIIDEGRFQASWRGKMLDLTPAEFRLLKTLSHEPGKVFSREQLLNHLYDDYRVVTDRTIDSHIKNLRRKLESLDAEQSFIRAVYGVGYRWEADACRIV
modifications: phosphorylated in vitro with phosphoramidate and MgSO4 (conserved aspartate of the receiver domain; residue number not given)
As for B4, in the series “FRET or BRET”, the binding result is “binds”.

B5: CFP–KdpE / YFP–KdpE, phosphorylated (natural protein)
chain: MTNVLIVEDEQAIRRFLRTALEGDGMRVFEAETLQRGLLEAATRKPDLIILDLGLPDGDGIEFIRDLRQWSAVPVIVLSARSEESDKIAALDAGADDYLSKPFGIGELQARLRVALRRHSATTAPDPLVKFSDVTVDLAARVIHRGEEEVHLTPIEFRLLAVLLNNAGKVLTQRQLLNQVWGPNAVEHSHYLRIYMGHLRQKLEQDPARPRHFITETGIGYRFML
modifications: phosphorylated in vitro with phosphoramidate and MgSO4 (conserved aspartate of the receiver domain; residue number not given)
With B5, the binding result in “FRET or BRET” was “binds”.

B6: CFP–ArcA / YFP–ArcA, phosphorylated (natural protein)
chain: MQTPHILIVEDELVTRNTLKSIFEAEGYDVFEATDGAEMHQILSEYDINLVIMDINLPGKNGLLLARELREQANVALMFLTGRDNEVDKILGLEIGADDYITKPFNPRELTIRARNLLSRTMNLGTVSEERRSVESYKFNGWELDINSRSLIGPDGEQYKLPRSEFRAMLHFCENPGKIQSRAELLKKMTGRELKPHDRTVDVTIRRIRKHFESTPDTPEIIATIHGEGYRFCGDLED
modifications: phosphorylated in vitro with phosphoramidate and MgSO4 (conserved aspartate of the receiver domain; residue number not given)
Regarding B6, the binding result in “FRET or BRET” was “binds”.

B7: CFP–CreB / YFP–CreB, phosphorylated (natural protein)
chain: MQRETVWLVEDEQGIADTLVYMLQQEGFAVEVFERGLPVLDKARKQVPDVMILDVGLPDISGFELCRQLLALHPALPVLFLTARSEEVDRLLGLEIGADDYVAKPFSPREVCARVRTLLRRVKKFSTPSPVIRIGHFELNEPAAQISWFDTPLALTRYEFLLLKTLLKSPGRVWSRQQLMDSVWEDAQDTYDRTVDTHIKTLRAKLRAINPDLSPINTHRGMGYSLRGL
modifications: phosphorylated in vitro with phosphoramidate and MgSO4 (conserved aspartate of the receiver domain; residue number not given)
As to B7, the binding result in the series “FRET or BRET” was “binds”.

B8: CFP–CusR / YFP–CusR, phosphorylated (natural protein)
chain: MKLLIVEDEKKTGEYLTKGLTEAGFVVDLADNGLNGYHLAMTGDYDLIILDIMLPDVNGWDIVRMLRSANKGMPILLLTALGTIEHRVKGLELGADDYLVKPFAFAELLARVRTLLRRGAAVIIESQFQVADLMVDLVSRKVTRSGTRITLTSKEFTLLEFFLRHQGEVLPRSLIASQVWDMNFDSDTNAIDVAVKRLRGKIDNDFEPKLIQTVRGVGYMLEVPDGQ
modifications: phosphorylated in vitro with phosphoramidate and MgSO4 (conserved aspartate of the receiver domain; residue number not given)
Consider B8, for which the binding result in “FRET or BRET” is “binds”.

B9: CFP–QseB / YFP–QseB, phosphorylated (natural protein)
chain: MRILLIEDDMLIGDGIKTGLSKMGFSVDWFTQGRQGKEALYSAPYDAVILDLTLPGMDGRDILREWREKGQREPVLILTARDALAERVEGLRLGADDYLCKPFALIEVAARLEALMRRTNGQASNELRHGNVMLDPGKRIATLAGEPLTLKPKEFALLELLMRNAGRVLSRKLIEEKLYTWDEEVTSNAVEVHVHHLRRKLGSDFIRTVHGIGYTLGEK
modifications: phosphorylated in vitro with phosphoramidate and MgSO4 (conserved aspartate of the receiver domain; residue number not given)
Consider B9, for which the binding result in “FRET or BRET” was “binds”.

What is called Kd is the free concentration of one partner at which half of the binding sites on the other are occupied at equilibrium, for simple one-to-one binding.
